Earlier results on 1 substance are cited in article doi:10.1101/2020.11.23.394015.

This data set deals with Glu89 (UniProt position 105, IDALNENKVLV). Conditions: folded; closed-to-open EF loop (Tanford) transition.

As for beta-lactoglobulin (BBL) (Bos taurus), the pKa is ~ 7.3.
